Experiments:
[1] = molecular target: CML conjugated to KLH (CML-KLH); test: direct binding ELISA, CML-KLH coat 1 ug/mL, antibody at 50 ug/mL
[2] = molecular target: CML conjugated to KLH (CML-KLH); test: direct binding ELISA, CML-KLH coat 1 ug/mL, antibody at 0.07 ug/mL
[3] = molecular target: CML conjugated to KLH (CML-KLH); test: direct binding ELISA, CML-KLH coat 1 ug/mL, antibody at 0.21 ug/mL
[4] = molecular target: CML conjugated to KLH (CML-KLH); test: direct binding ELISA, CML-KLH coat 1 ug/mL, antibody at 0.62 ug/mL
[5] = molecular target: CML conjugated to KLH (CML-KLH); test: direct binding ELISA, CML-KLH coat 1 ug/mL, antibody at 1.85 ug/mL
[6] = molecular target: CML conjugated to KLH (CML-KLH); test: direct binding ELISA, CML-KLH coat 1 ug/mL, antibody at 5.56 ug/mL
[7] = molecular target: CML conjugated to KLH (CML-KLH); test: direct binding ELISA, CML-KLH coat 1 ug/mL, antibody at 16.67 ug/mL

OD450 [1]: 0.462 OD450
OD450 [2]: 0.086 OD450
OD450 [3]: 0.075 OD450
OD450 [4]: 0.083 OD450
OD450 [5]: 0.092 OD450
OD450 [6]: 0.165 OD450
OD450 [7]: 0.312 OD450
Substance: anti-carboxymethyl lysine (CML) antibody (R&D Systems, MAB3247)

From patent US20200150131A1
